Laboratory results taken from patent US20230340160A1 (published 2023).

T1: human CEA expressed on tumor cells (human, UniProt P06731 35-702)
T1 sequence (looked up): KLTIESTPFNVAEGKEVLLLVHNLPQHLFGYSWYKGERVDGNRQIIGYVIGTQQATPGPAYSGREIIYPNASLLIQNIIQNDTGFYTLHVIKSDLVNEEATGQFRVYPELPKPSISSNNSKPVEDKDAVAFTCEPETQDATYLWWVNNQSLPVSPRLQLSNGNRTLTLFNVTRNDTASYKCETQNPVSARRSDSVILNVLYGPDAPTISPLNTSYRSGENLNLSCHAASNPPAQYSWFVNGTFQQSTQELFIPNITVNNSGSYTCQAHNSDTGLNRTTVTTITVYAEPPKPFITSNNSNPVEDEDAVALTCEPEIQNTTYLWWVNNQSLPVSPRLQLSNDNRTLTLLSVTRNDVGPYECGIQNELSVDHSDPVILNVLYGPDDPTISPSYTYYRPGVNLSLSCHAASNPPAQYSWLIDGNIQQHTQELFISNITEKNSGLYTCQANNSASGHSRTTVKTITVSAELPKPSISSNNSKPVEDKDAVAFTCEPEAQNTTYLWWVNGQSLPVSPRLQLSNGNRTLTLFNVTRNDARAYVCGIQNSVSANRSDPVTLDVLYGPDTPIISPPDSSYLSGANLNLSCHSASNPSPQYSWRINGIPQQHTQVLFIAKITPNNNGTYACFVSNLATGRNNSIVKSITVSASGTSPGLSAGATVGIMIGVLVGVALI

B1: “1+1 IgG Crossfab light chain (LC) fusion” (CH1A1A/V9) (bispecific antibody)
heavy: not shown
chain: DKTHTCPPCPAPEAAGGPSVFLFPPKPKDTLMISRTPEVTCVVVDVSHEDPEVKFNWYVDGVEVHNAKTKPREEQYNSTYRVVSVLTVLHQDWLNGKEYKCKVSNKALGAPIEKTISKAKGQPREPQVCTLPPSRDELTKNQVSLSCAVKGFYPSDIAVEWESNGQPENNYKTTPPVLDSDGSFFLVSKLTVDKSRWQQGNVFSCSVMHEALHNHYTQKSLSLSPGK
light 1: DIQMTQSPSSLSASVGDRVTITCKASAAVGTYVAWYQQKPGKAPKLLIYSASYRKRGVPSRFSGSGSGTDFTLTISSLQPEDFATYYCHQYYTYPLFTFGQGTKLEIKRTVAAPSVFIFPPSDEQLKSGTASVVCLLNNFYPREAKVQWKVDNALQSGNSQESVTEQDSKDSTYSLSSTLTLSKADYEKHKVYACEVTHQGLSSPVTKSFNRGECGGGGSGGGGSGGGGSGGGGSEVQLVESGGGLVQPGGSLRLSCAASGYSFTGYTMNWVRQAPGKGLEWVALINPYKGVSTYNQKFKDRFTISVDKSKNTAYLQMNSLRAEDTAVYYCARSGYYGDSDWYFDVWGQGTLVTVSSASVAAPSVFIFPPSDEQLKSGTASVVCLLNNFYPREAKVQWKVDNALQSGNSQESVTEQDSKDSTYSLSSTLTLSKADYEKHKVYACEVTHQGLSSPVTKSFNRGEC
light 2: DIQMTQSPSSLSASVGDRVTITCRASQDIRNYLNWYQQKPGKAPKLLIYYTSRLESGVPSRFSGSGSGTDYTLTISSLQPEDFATYYCQQGNTLPWTFGQGTKVEIKSSASTKGPSVFPLAPSSKSTSGGTAALGCLVKDYFPEPVTVSWNSGALTSGVHTFPAVLQSSGLYSLSSVVTVPSSSLGTQTYICNVNHKPSNTKVDKKVEPKSC
notes: also called 1+1 IgG Crossfab LC fusion
B2: “2+1 IgG Crossfab” (anti-MCSP/anti-huCD3); VH/VL exchange (LC007/V9) (bispecific antibody)
heavy 1: DIQMTQSPSSLSASVGDRVTITCRASQDIRNYLNWYQQKPGKAPKLLIYYTSRLESGVPSRFSGSGSGTDYTLTISSLQPEDFATYYCQQGNTLPWTFGQGTKVEIKSSASTKGPSVFPLAPSSKSTSGGTAALGCLVKDYFPEPVTVSWNSGALTSGVHTFPAVLQSSGLYSLSSVVTVPSSSLGTQTYICNVNHKPSNTKVDKKVEPKSCGGGGSGGGGSEVQLQESGPGLVKPSQSLSLTCSVTGYSITSGYYWNWIRQFPGNKLEWMGYITYDGSNNYNPSLKNRISITRDTSKNQFFLKLNSVTTEDTATYYCADFDYWGQGTTLTVSSASTKGPSVFPLAPSSKSTSGGTAALGCLVKDYFPEPVTVSWNSGALTSGVHTFPAVLQSSGLYSLSSVVTVPSSSLGTQTYICNVNHKPSNTKVDKKVEPKSCDKTHTCPPCPAPEAAGGPSVFLFPPKPKDTLMISRTPEVTCVVVDVSHEDPEVKFNWYVDGVEVHNAKTKPREEQYNSTYRVVSVLTVLHQDWLNGKEYKCKVSNKALGAPIEKTISKAKGQPREPQVCTLPPSRDELTKNQVSLSCAVKGFYPSDIAVEWESNGQPENNYKTTPPVLDSDGSFFLVSKLTVDKSRWQQGNVFSCSVMHEALHNHYTQKSLSLSPGK
heavy 2: not shown
light 1: DIVLTQSPSSLSASLGDRVTISCSASQGIRNYLNWYQQRPDGTVKLLIYYTSSLHSGVPSRFSGSGSGTDYSLTISNLEPEDIATYYCQQYSKLPWTFGGGTKLEIKRTVAAPSVFIFPPSDEQLKSGTASVVCLLNNFYPREAKVQWKVDNALQSGNSQESVTEQDSKDSTYSLSSTLTLSKADYEKHKVYACEVTHQGLSSPVTKSFNRGEC
light 2: EVQLVESGGGLVQPGGSLRLSCAASGYSFTGYTMNWVRQAPGKGLEWVALINPYKGVSTYNQKFKDRFTISVDKSKNTAYLQMNSLRAEDTAVYYCARSGYYGDSDWYFDVWGQGTLVTVSSASVAAPSVFIFPPSDEQLKSGTASVVCLLNNFYPREAKVQWKVDNALQSGNSQESVTEQDSKDSTYSLSSTLTLSKADYEKHKVYACEVTHQGLSSPVTKSFNRGEC
notes: also called 2+1 IgG Crossfab (V9)
B3: “2+1 IgG Crossfab”; CL/CH1 exchange (LC007/anti-CD3) (bispecific antibody)
heavy 1: not shown
heavy 2: EVQLQESGPGLVKPSQSLSLTCSVTGYSITSGYYWNWIRQFPGNKLEWMGYITYDGSNNYNPSLKNRISITRDTSKNQFFLKLNSVTTEDTATYYCADFDYWGQGTTLTVSSASTKGPSVFPLAPSSKSTSGGTAALGCLVKDYFPEPVTVSWNSGALTSGVHTFPAVLQSSGLYSLSSVVTVPSSSLGTQTYICNVNHKPSNTKVDKKVEPKSCDKTHTCPPCPAPEAAGGPSVFLFPPKPKDTLMISRTPEVTCVVVDVSHEDPEVKFNWYVDGVEVHNAKTKPREEQYNSTYRVVSVLTVLHQDWLNGKEYKCKVSNKALGAPIEKTISKAKGQPREPQVCTLPPSRDELTKNQVSLSCAVKGFYPSDIAVEWESNGQPENNYKTTPPVLDSDGSFFLVSKLTVDKSRWQQGNVFSCSVMHEALHNHYTQKSLSLSPGK
light 1: B2 light 1
light 2: QAVVTQESALTTSPGETVTLTCRSSTGAVTTSNYANWVQEKPDHLFTGLIGGTNKRAPGVPARFSGSLIGDKAALTITGAQTEDEAIYFCALWYSNLWVFGGGTKLTVLSSASTKGPSVFPLAPSSKSTSGGTAALGCLVKDYFPEPVTVSWNSGALTSGVHTFPAVLQSSGLYSLSSVVTVPSSSLGTQTYICNVNHKPSNTKVDKKVEPKSC
notes: also called 2+1 IgG Crossfab (anti-CD3)
B4: CD3/MCSP “2+1 IgG Crossfab, inverted”; CL/CH1 exchange (LC007/V9) (bispecific antibody)
heavy 1: not shown
heavy 2: B3 heavy 2
light 1: B2 light 1
light 2: B1 light 2
notes: also called 2+1 IgG Crossfab, inverted (V9)
B5: “1+1 IgG scFab, one armed” (anti-MCSP/anti-huCD3) (bispecific antibody)
heavy 1: not shown
heavy 2: not shown
light: B2 light 1
B6: “2+1 IgG Crossfab, inverted”; CL/CH1 exchange (LC007/anti-CD3) (bispecific antibody)
heavy 1: not shown
heavy 2: B3 heavy 2
light 1: B2 light 1
light 2: B3 light 2
notes: also called 2+1 IgG Crossfab, inverted (anti-CD3)

How the values were obtained:
[1] = target: T1, human CEA expressed on tumor cells; assay: cell-based or functional assay
[2] = target: T2, human CD3 expressed on Jurkat cells (human, UniProt P07766 23-207); assay: flow cytometry on Jurkat cells
T2 construct: CD3 complex on Jurkat cells (ATCC TIB-152); also called huCD3
T2 sequence (P07766 23-207 limits assumed): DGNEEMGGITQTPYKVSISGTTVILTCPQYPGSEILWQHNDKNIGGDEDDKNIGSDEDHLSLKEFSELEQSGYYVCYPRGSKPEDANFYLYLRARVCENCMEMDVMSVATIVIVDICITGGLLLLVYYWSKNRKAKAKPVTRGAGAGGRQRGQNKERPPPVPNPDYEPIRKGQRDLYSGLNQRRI
Protocol: (§1) Binding of the different bispecific constructs to CD3 on Jurkat cells (ATCC #TIB-152), and the respective tumor antigen on target cells, was determined by FACS. Briefly, cells were harvested, counted and checked for viability. 0.15 - 0.2 million cells per well (in PBS containing 0.1% BSA; 90 µl) were plated in a round-bottom 96-well plate and incubated with the indicated concentration of the bispecific constructs and corresponding IgG controls (10 µl) for 30 min at 4° C. For a better comparison, all constructs and IgG controls were normalized to same molarity. After the incubation, cells were centrifuged (5 min, 350 × g), washed with 150 µl PBS containing 0.1% BSA, resuspended and incubated for further 30 min at 4° C. with 12 µl/well of a FITC-or PE-conjugated secondary antibody. Bound constructs were detected using a FACSCantoII (Software FACS Diva). The “(scFv)₂” molecule was detected using a FITC-conjugated anti-His antibody (Lucerna, #RHIS-45F-Z). For all other molecules, a FITC- or PE-conjugated AffiniPure F(ab′)2 Fragment goat anti-human IgG Fcγ Fragment Specific (Jackson Immuno Research Lab # 109-096-098 / working solution 1:20, or #109-116-170 / working solution 1:80, respectively) was used. Cells were washed by addition of 120 µl/well PBS containing 0.1% BSA and centrifugation at 350 × g for 5 min. A second washing step was performed with 150 µl/well PBS containing 0.1% BSA. Unless otherwise indicated, cells were fixed with 100 µl/well fixation buffer (BD #554655) for 15 min at 4° C. in the dark, centrifuged for 6 min at 400 × g and kept in 200 µl/well PBS containing 0.1% BSA until the samples were measured with FACS CantoII. EC50 values were calculated using the GraphPad Prism software.
As a control, the equivalent maximum concentration of the corresponding IgGs and the background staining due to the labeled 2ndary antibody (goat anti-human FITC-conjugated AffiniPure F(ab′)2 Fragment, Fcγ Fragment-specific, Jackson Immuno Research Lab # 109-096-098) were assessed as well.

[3] = target: T3, human MCSP expressed on tumor cells (human, UniProt Q6UVK1 30-2322); assay: cell-based or functional assay
T3 sequence (Q6UVK1 30-2322): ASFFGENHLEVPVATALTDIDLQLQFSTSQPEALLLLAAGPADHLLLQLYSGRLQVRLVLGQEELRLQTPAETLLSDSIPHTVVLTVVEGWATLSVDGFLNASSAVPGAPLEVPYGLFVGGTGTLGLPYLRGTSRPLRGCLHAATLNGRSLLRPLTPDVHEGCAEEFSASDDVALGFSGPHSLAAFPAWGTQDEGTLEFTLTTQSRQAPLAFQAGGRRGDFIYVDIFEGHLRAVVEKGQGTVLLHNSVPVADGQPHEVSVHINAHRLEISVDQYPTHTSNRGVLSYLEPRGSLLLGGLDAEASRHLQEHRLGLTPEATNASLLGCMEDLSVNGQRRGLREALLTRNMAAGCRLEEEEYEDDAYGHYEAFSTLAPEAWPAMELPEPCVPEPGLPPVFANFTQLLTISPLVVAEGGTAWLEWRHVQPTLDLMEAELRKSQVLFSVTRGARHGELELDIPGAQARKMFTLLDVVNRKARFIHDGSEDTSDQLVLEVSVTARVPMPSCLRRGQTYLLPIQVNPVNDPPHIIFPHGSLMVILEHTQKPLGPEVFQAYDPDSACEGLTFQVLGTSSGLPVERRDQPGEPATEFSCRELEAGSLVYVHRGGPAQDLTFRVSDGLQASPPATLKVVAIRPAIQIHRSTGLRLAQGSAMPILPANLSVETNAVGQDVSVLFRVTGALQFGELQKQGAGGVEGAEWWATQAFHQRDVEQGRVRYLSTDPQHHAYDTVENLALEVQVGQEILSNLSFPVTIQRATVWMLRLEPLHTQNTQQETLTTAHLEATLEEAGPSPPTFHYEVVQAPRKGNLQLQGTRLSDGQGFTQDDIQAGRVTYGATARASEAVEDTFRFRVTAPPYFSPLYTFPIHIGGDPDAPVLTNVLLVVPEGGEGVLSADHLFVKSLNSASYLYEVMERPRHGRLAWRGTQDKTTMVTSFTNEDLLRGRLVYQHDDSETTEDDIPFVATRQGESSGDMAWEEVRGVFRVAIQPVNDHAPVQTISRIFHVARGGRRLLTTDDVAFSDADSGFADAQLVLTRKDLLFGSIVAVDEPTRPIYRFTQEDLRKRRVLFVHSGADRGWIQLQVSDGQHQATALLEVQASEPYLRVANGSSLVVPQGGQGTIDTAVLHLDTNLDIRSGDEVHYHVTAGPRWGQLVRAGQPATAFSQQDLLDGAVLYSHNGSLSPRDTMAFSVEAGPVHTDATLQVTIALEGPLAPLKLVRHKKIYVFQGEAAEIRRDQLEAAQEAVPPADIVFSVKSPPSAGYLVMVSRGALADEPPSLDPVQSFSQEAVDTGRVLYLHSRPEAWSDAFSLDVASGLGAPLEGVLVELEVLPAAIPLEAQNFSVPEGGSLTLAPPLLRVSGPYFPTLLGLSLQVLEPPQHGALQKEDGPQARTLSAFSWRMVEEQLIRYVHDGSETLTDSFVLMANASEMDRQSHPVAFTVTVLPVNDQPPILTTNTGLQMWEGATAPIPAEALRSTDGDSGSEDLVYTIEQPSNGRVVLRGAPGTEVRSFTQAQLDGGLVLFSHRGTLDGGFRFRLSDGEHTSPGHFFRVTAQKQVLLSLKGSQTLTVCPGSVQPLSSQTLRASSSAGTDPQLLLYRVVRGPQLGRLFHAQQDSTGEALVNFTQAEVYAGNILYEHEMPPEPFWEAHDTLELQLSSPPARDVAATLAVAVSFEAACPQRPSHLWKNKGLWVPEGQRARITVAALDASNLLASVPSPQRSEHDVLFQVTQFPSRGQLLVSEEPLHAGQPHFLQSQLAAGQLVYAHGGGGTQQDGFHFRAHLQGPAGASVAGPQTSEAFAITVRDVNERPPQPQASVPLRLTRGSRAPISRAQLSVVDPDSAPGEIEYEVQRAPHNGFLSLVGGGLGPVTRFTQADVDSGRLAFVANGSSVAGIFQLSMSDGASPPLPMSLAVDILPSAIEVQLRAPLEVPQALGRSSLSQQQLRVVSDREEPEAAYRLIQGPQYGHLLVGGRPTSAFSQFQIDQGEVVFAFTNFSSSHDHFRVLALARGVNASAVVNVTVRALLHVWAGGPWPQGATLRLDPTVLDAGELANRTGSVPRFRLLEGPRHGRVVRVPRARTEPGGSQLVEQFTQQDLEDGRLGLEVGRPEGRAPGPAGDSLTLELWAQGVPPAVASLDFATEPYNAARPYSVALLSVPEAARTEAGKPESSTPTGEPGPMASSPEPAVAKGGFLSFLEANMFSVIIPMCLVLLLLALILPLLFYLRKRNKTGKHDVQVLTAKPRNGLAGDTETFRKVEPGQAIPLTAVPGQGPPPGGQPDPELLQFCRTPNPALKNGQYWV

[4] = target: T3, human MCSP expressed on tumor cells; assay: cell-based or functional assay; remark: listed apart in the source
[5] = target: T3, human MCSP expressed on tumor cells; assay: flow cytometry on WM266-4 cells
Protocol: as §1
In a final experiment, binding of the “2+1 IgG Crossfab” (SEQ ID NOs 5, 23, 215, 217) and the “2+1 IgG Crossfab, inverted” (SEQ ID NOs 5, 23, 215, 219) constructs to human CD3, expressed by Jurkat cells, and to human MCSP, expressed by WM266-4 tumor cells was determined. As depicted in FIG. 58A and FIG. 58B the binding to human CD3 was reduced for the “2+1 IgG Crossfab, inverted” compared to the other construct, but the binding to human MCSP was comparably good.

[6] = target: T3, human MCSP expressed on tumor cells; assay: flow cytometry on Colo-38 cells, 50 nM
Protocol: as §1
(§2) In a first experiment, different bispecific constructs targeting human MCSP and human CD3 were analyzed by flow cytometry for binding to human CD3 expressed on Jurkat, human T cell leukaemia cells, or to human MCSP on Colo-38 human melanoma cells.

[7] = target: T2, human CD3 expressed on Jurkat cells; assay: flow cytometry on Jurkat cells, 50 nM
Protocol: as §1, §2

Binder | EC50 [pM] of killing (LDH release) of MV-3 cells, human PBMCs, E:T 10:1, about 24 h [4] [pM] | EC50 [pM] of killing (LDH release) of WM266-4 cells, human PBMCs, E:T 10:1, about 24 h [4] [pM] | EC50 [2] [nM] | EC50 [5] [nM] | other results
B1 | – | – | – | – | EC50 of killing (LDH release) of LS-174T cells, human PBMCs, E:T 10:1, 28 h [1]: 1.56 nM; EC50 of killing (LDH release) of MC38-huCEA cells, human PBMCs, E:T 10:1, 24 h [1]: ~3.2 nM; EC50 of killing (LDH release) of MKN-45 cells, human PBMCs, E:T 10:1, 28 h [1]: 0.213 nM; binding result [2]: binds
B2 | 10 | 12.4 | 1.66 | 0.95 | EC50 of killing (LDH release) of MV-3 cells, human PBMCs, E:T 10:1, 21 h [3]: 0.0092 nM; EC50 of killing (LDH release) of WM266-4 cells, human PBMCs, E:T 10:1, 21 h [3]: 0.0331 nM
B3 | 11 | 11.3 | 10.3 | 3.1 | –
B4 | 4.1 | 3.7 | 6.1 | 0.57 | –
B5 | – | – | – | – | binding result [6]: binds; binding result [7]: binds
B6 | 3 | 7.1 | 32 | 3.4 | –
